Biological target: T1, Coactosin (Entamoeba histolytica, UniProt C4M4P4)
T1 chain: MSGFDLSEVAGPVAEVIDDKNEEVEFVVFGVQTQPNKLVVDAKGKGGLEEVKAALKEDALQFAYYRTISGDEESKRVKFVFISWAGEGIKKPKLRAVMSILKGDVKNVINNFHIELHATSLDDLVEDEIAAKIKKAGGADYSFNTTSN
Test: SPR

B1: EhP3 (protein)
chain: MAESREDCVFLSKLAEQSERYDEMVQYMKQVAALNTELSVEERNLLSVAYKNVIGSRRASWRIITSLEQKEQAKGNDKHVEIIKGYRAKIEDELAKYCDDVLKVIKENLLPNASTSESKVFYKKMEGDYYRYYAEFTVDEKRQEVADKSLAAYTEATEISNADLAPTHPIRLGLALNFSVFYYEIMNDADKACQLAKQAFDDSIAKLDEVPESSYKDSTLIMQLLRDNLTLWTSDTADEE
Kd: 3 µM
